T1: purified RECQL4-3XFLAG (human, UniProt O94761 1-1208)
T1 sequence (looked up): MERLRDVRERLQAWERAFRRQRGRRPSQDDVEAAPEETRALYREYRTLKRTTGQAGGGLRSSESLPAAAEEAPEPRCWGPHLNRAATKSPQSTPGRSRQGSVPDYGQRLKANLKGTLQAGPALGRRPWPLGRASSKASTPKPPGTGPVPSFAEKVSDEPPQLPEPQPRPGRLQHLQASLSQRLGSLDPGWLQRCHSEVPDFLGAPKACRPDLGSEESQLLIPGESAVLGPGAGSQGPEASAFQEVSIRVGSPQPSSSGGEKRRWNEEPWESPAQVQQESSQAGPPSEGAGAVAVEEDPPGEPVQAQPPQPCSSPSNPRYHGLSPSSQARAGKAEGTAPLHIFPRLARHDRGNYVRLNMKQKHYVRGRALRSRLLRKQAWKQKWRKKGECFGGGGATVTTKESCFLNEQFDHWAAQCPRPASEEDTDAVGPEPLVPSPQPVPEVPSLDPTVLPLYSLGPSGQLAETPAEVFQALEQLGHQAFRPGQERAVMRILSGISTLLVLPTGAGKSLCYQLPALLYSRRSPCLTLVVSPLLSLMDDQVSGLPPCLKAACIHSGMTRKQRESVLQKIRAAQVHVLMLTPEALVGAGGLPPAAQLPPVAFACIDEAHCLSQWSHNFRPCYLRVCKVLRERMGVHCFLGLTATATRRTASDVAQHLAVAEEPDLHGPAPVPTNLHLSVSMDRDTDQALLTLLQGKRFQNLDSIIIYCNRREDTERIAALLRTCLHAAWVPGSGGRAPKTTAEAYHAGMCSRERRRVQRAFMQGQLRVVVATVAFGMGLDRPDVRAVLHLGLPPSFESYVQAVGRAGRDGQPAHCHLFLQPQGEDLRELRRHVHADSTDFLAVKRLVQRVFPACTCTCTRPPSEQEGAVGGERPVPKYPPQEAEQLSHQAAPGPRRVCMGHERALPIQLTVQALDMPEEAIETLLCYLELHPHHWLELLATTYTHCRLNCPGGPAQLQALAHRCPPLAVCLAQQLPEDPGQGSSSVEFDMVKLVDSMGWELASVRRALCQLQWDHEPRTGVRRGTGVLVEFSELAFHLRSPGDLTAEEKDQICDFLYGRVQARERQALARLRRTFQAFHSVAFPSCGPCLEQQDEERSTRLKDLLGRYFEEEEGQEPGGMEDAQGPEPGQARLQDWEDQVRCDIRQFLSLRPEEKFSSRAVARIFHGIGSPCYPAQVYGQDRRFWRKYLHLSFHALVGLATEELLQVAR

T2: RECQL4-KM-3XFLAG (human, UniProt O94761 1-1208, lysine 508 replaced with methionine (RECQL4-KM))
T2 sequence (looked up): T1 sequence (looked up) with K508M

B1: recombinant RECQL4 (natural protein, human, UniProt O94761 1-1208, looked up)
chain: T1 sequence (looked up)
B2: purified YFP-MRE11 (natural protein, human, UniProt P49959 1-708, looked up)
chain: MSTADALDDENTFKILVATDIHLGFMEKDAVRGNDTFVTLDEILRLAQENEVDFILLGGDLFHENKPSRKTLHTCLELLRKYCMGDRPVQFEILSDQSVNFGFSKFPWVNYQDGNLNISIPVFSIHGNHDDPTGADALCALDILSCAGFVNHFGRSMSVEKIDISPVLLQKGSTKIALYGLGSIPDERLYRMFVNKKVTMLRPKEDENSWFNLFVIHQNRSKHGSTNFIPEQFLDDFIDLVIWGHEHECKIAPTKNEQQLFYISQPGSSVVTSLSPGEAVKKHVGLLRIKGRKMNMHKIPLHTVRQFFMEDIVLANHPDIFNPDNPKVTQAIQSFCLEKIEEMLENAERERLGNSHQPEKPLVRLRVDYSGGFEPFSVLRFSQKFVDRVANPKDIIHFFRHREQKEKTGEEINFGKLITKPSEGTTLRVEDLVKQYFQTAEKNVQLSLLTERGMGEAVQEFVDKEEKDAIEELVKYQLEKTQRFLKERHIDALEDKIDEEVRRFRETRQKNTNEEDDEVREAMTRARALRSQSEESASAFSADDLMSIDLAEQMANDSDDSISAATNKGRGRGRGRRGGRGQNSASRGGSQRGRADTGLETSTRSRNSKTAVSASRNMSIIDAFKSTRQQPSRNVTTKNYSEVIEVDESDVEEDIFPTTSKTDQRWSSTSSSKIMSQSQVSKGVDFESSEDDDDDPFMNTSSLRRNRR
B3: recombinant CtIP (natural protein, human, UniProt Q99708 1-897, looked up)
chain: MNISGSSCGSPNSADTSSDFKDLWTKLKECHDREVQGLQVKVTKLKQERILDAQRLEEFFTKNQQLREQQKVLHETIKVLEDRLRAGLCDRCAVTEEHMRKKQQEFENIRQQNLKLITELMNERNTLQEENKKLSEQLQQKIENDQQHQAAELECEEDVIPDSPITAFSFSGVNRLRRKENPHVRYIEQTHTKLEHSVCANEMRKVSKSSTHPQHNPNENEILVADTYDQSQSPMAKAHGTSSYTPDKSSFNLATVVAETLGLGVQEESETQGPMSPLGDELYHCLEGNHKKQPFEESTRNTEDSLRFSDSTSKTPPQEELPTRVSSPVFGATSSIKSGLDLNTSLSPSLLQPGKKKHLKTLPFSNTCISRLEKTRSKSEDSALFTHHSLGSEVNKIIIQSSNKQILINKNISESLGEQNRTEYGKDSNTDKHLEPLKSLGGRTSKRKKTEEESEHEVSCPQASFDKENAFPFPMDNQFSMNGDCVMDKPLDLSDRFSAIQRQEKSQGSETSKNKFRQVTLYEALKTIPKGFSSSRKASDGNCTLPKDSPGEPCSQECIILQPLNKCSPDNKPSLQIKEENAVFKIPLRPRESLETENVLDDIKSAGSHEPIKIQTRSDHGGCELASVLQLNPCRTGKIKSLQNNQDVSFENIQWSIDPGADLSQYKMDVTVIDTKDGSQSKLGGETVDMDCTLVSETVLLKMKKQEQKGEKSSNEERKMNDSLEDMFDRTTHEEYESCLADSFSQAADEEEELSTATKKLHTHGDKQDKVKQKAFVEPYFKGDERETSLQNFPHIEVVRKKEERRKLLGHTCKECEIYYADMPAEEREKKLASCSRHRFRYIPPNTPENFWEVGFPSTQTCMERGYIKEDLDPCPRPKRRQPYNAIFSPKGKEQKT

Assay [1] deals with MRE11-RAD50-NBS1 complex (recombinant) (human, UniProt P49959 1-708; Q92878 1-1312; O60934 1-754). As to the kind of experiment: co-IP.
Chain of MRE11-RAD50-NBS1 complex (recombinant) (Q92878 whole entry, chain 2 of 2): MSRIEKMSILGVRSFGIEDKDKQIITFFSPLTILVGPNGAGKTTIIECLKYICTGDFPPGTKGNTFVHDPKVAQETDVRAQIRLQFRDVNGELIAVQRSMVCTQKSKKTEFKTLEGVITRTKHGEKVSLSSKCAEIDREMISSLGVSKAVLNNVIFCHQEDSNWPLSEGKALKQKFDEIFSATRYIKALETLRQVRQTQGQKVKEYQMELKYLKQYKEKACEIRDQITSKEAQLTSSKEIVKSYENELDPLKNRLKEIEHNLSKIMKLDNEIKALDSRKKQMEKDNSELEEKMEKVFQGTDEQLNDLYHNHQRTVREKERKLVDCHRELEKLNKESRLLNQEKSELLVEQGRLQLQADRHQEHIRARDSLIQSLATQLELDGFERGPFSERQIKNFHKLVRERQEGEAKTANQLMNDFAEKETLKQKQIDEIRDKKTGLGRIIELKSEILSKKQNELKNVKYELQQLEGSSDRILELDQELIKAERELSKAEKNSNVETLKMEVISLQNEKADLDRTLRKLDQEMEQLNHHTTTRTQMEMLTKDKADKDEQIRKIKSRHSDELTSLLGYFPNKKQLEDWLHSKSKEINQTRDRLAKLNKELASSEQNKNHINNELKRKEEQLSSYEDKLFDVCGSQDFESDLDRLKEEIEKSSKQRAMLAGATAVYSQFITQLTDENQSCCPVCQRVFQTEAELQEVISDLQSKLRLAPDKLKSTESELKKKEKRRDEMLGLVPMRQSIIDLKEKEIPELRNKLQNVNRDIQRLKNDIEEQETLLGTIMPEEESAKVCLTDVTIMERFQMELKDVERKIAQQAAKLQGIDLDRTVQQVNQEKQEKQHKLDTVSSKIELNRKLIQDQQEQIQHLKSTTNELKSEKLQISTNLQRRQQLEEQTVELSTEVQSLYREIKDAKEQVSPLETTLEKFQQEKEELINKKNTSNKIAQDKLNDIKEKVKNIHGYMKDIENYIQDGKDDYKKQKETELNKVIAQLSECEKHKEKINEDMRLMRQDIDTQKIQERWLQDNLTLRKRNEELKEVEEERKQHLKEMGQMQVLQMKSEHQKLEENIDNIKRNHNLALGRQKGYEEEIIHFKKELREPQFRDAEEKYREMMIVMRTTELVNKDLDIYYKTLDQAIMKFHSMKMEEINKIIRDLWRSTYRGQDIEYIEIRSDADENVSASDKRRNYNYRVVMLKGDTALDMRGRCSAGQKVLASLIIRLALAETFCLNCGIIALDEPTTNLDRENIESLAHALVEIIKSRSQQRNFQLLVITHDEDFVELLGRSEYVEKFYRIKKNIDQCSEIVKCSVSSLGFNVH
Chain of MRE11-RAD50-NBS1 complex (recombinant) (O60934 whole entry, chain 3 of 2): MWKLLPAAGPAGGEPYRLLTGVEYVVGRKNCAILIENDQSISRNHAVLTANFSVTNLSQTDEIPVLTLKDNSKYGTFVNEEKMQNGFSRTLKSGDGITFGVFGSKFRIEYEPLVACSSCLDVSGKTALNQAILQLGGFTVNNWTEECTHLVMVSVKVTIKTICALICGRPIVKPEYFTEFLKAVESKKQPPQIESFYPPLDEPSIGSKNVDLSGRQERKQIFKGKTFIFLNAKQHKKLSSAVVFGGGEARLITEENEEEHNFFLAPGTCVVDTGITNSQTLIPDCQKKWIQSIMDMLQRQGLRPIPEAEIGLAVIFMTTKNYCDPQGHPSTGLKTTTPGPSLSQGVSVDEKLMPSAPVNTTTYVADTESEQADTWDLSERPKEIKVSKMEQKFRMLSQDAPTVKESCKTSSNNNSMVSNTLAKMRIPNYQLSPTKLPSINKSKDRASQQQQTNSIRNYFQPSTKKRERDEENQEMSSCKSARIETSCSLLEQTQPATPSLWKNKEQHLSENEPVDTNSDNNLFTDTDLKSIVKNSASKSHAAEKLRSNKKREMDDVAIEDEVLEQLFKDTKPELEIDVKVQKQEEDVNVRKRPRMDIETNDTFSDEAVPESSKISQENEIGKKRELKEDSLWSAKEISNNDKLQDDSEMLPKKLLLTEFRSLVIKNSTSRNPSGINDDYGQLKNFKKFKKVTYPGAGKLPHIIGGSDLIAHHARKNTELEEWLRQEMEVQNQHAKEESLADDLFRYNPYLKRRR
The target of another assay is T1, purified RECQL4-3XFLAG. Put plainly: pull-down.
In the next assay the target is T2, RECQL4-KM-3XFLAG. As to the kind of experiment: pull-down.
The target of the assay “recombinant RECQL4” is B1. As to the kind of experiment: co-IP.

Numbering of substitutions follows the chain as printed.

For the molecule B1, the binding result in assay [1] is reported as “binds”.

Consider B2, for which the binding result with purified RECQL4-3XFLAG and with RECQL4-KM-3XFLAG was “binds” throughout.

For B3, in the assay with recombinant RECQL4, the binding result was “binds”.

The record behind these values is PMC5576896 (Cell reports, 2016).
